According to publication PMC11263335:

Legend:
[1] = target: shrimp hemocyanin (SHC) from Litopenaeus vannamei (Litopenaeus vannamei) (UniProt Q26180); assay: SEC + other: transmission electron microscopy (uranyl acetate stain); purified SHC in PBS; Superdex-200 elution and particle diameters on a carbon-coated grid (FEI F20, 120 kV), compared with AlphaFold models of monomer and tetramer
[2] = target: shrimp hemocyanin (SHC) from Litopenaeus vannamei (Litopenaeus vannamei) (UniProt Q26180); assay: SEC; purified SHC dissolved in PBS, Superdex-200 column, size by standard proteins

## shrimp hemocyanin (SHC) from Litopenaeus vannamei (from UniProt Q26180 1-662) (natural protein)
[1]
  stoichiometry N: 4
[2]
  percent of SHC eluting between 158 and 440 kDa: 80%
